Reference: article PMC1557820 (Nucleic Acids Research, 2006)

Target: T1, N-terminal domain of S. cerevisiae methionyl-tRNA synthetase (residues 1-160) (S. cerevisiae, UniProt P00958 1-160)
T1 sequence (looked up): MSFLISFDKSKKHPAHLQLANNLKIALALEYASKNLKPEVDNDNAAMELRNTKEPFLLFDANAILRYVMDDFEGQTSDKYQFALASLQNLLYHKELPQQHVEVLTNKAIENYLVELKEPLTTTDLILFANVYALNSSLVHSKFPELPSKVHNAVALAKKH
Assay: SEC

B1: N-terminal domain of S. cerevisiae Arc1p (residues 1-122) (domain or fragment, UniProt P46672 1-122, looked up)
chain: MSDLVTKFESLIISKYPVSFTKEQSAQAAQWESVLKSGQIQPHLDQLNLVLRDNTFIVSTLYPTSTDVHVFEVALPLIKDLVASSKDVKSTYTTYRHILRWIDYMQNLLEVSSTDKLEINHD
stoichiometry N: 1
